Assay results from US20250145926A1, “DEVICES, METHODS, AND SYSTEMS FOR ASSESSING CELL MIGRATION AND RELATED PROCESSES” (University of Washington, priority 2023, published 2025).

Tested on: differentiated HL-60 neutrophils
Experiment: vE/D ratio and ectodomain charge estimation, under-agarose cells immobilized with Latrunculin A in an electric field
Assay type: cell-based, human
Settings: averaged across all electric field conditions; ± SEM
Protocol: Experimental Setup. Cells were resuspended to a concentration of 2×10^6 cells/ml in L-15 Medium with 10% hiFBS. With an ibiTreat μ-Slide-I (Ibidi, #80106) placed on a 37° C. heat block, 100 μL of cells were added to the channel and incubated for 5 minutes to allow them to sediment and loosely adhere to the bottom coverslip. Warm, liquid 2.5% UltraPure low melting point agarose (Invitrogen of Waltham, MA, #16520-050) in L-15 with 10% hiFBS was added to one channel reservoir and then centrifuged at 28-37° C. for 5 min at 700 g. This was performed in a custom 3D-printed swinging bucket rotor plate adaptor (design available upon request). Immediately after centrifugation, the slide was incubated on a 20° C. cooling plate (STIR-KOOL, Ladd Research of Essex Junction, VT; #SK-12D-AW) for 5 minutes to gel. […] L-15 media with 10% hiFBS was added to both reservoirs. […]
Quantification of vE/D Ratio and Estimation of Charge. […] Under the imaging conditions (800 nm axial resolution), the measured fluorescence intensities will reflect fluorescence predominantly at this surface, and the biological system is treated as a flat two-dimensional surface. […]

B1: Galvanin: single-pass transmembrane protein (161 amino acids, UniProt ID: Q6P9G4), electric field sensor (protein)
chain: NYEELENSGDTTVESERPNKVTIPSTFAAVTIKETLNANINSTNFAPDENQLEFILMVLIPLILLVLLLLSVVFLATYYKRKRTKQEPSSQGSQSALQTYELGSENVKVPIFEEDTPSVMEIEMEELDKWMNSMNRNADFECLPTLKEEKESNHNPSDSES
For B1, the “net charge estimated from vE/D” value was −18 e.
